Reference: patent US8420776B2, “Ube2G2 binding domain in the ubiquitin ligase gp78 and methods of use thereof” (The United States of America, as Represented by the …, priority 2004, dated 2013)

Biological target: T1, UbcH5B (Homo sapiens, UniProt P62837)
T1 construct: made in house; host or cells: in vitro translation in wheat germ
Experiment: GST pull-down binding of in vitro translated UbcH5B
Conditions: GST fusion pull-down
Method: GST fusions were purified from E. Coli. Binding was carried out using equi-molar amount of fusion proteins measured by Commassie blue staining. Generally, 20 picomoles/sample were used. In vitro translated E2 was generated by coupled transcription and translation using 35S methionine in either wheat germ or rabbit reticulocyte lysate. Binding assays using in vitro translated E2 was carried out by incubating GST protein pre-bound to Glutathione-sepharose 4B with […] of ^35S-methionine labeled E2 in binding buffer (25 mM Tris-HCl, pH 7.4; 50 mM NaCl, 5 mM DTT; and 0.5% NP-40) overnight at 4° C. Beads were washed with binding buffer and resolved by SDS-PAGE under reducing conditions. Analysis was by Storm PhosphoImager (Applied Biosystems, Foster City, Calif.). Direct binding assays used wild type His6-MmUbc7 (His6-Ube2G2) and Glutathione-sepharose bound GST fusions. Beadbound GST protein was incubated with 100 ng purified His6-MmUbc7 in binding buffer and washed and eluted as above. After transfer to Hybond-P (Amersham Biosciences) binding was assessed with anti-His6 followed by Enhanced Chemiluminescence ECL; Pierce). Ubiquitin binding studies were performed with binding and washing as above using 1 μg K48 tetra-ubiquitin produced as described (Piotrowski et al., 1997). Detection was by anti-ubiquitin immunoblotting. […]

T1 sequence (P62837 whole entry): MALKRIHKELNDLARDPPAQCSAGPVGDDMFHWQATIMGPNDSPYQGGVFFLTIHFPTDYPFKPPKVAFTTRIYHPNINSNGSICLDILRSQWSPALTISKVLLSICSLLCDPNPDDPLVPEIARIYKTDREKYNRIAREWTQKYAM

binding to in vitro translated UbcH5B: did bind
B1: AO7: GST fusion of the RING finger and surrounding regions of the unrelated E3 enzyme AO7 (protein)
chain: QIHKISQALGHVAKEGLGTAMLYELIEKGKEILTDNNIPHGQCVICLYGFQEKEAFTKTPCYHYFHCHCLARYIQHMEQELTTQEQEQERQHVVTKQKAVGVQCPVCREPLVYDLASLKAAPEPQQPMELYQPSAESLRQQEELKLLYQRQQEKGGIIDLEAERNRYF
modifications: left off: a dimerising Fc or GST
